Experiment [1] has as its target recombinant human NRP1 protein (human) (UniProt O14786). The experiment can be described thus: SPR; Biacore T200; ACE2 or NRP1 amine-coupled on a CM5 chip (about 10,000 RU); tuftsin flowed at gradient concentrations; 25°C, 30 µl/min; 1×PBS, 0.05% Tween 20, 5% dimethyl sulfoxide, pH 7.4; steady state affinity model.
In experiment [2] the target is recombinant human ACE2 protein (human) (UniProt Q9BYF1). The description is as above.
Chain of recombinant human ACE2 protein (human) (Q9BYF1 18-740): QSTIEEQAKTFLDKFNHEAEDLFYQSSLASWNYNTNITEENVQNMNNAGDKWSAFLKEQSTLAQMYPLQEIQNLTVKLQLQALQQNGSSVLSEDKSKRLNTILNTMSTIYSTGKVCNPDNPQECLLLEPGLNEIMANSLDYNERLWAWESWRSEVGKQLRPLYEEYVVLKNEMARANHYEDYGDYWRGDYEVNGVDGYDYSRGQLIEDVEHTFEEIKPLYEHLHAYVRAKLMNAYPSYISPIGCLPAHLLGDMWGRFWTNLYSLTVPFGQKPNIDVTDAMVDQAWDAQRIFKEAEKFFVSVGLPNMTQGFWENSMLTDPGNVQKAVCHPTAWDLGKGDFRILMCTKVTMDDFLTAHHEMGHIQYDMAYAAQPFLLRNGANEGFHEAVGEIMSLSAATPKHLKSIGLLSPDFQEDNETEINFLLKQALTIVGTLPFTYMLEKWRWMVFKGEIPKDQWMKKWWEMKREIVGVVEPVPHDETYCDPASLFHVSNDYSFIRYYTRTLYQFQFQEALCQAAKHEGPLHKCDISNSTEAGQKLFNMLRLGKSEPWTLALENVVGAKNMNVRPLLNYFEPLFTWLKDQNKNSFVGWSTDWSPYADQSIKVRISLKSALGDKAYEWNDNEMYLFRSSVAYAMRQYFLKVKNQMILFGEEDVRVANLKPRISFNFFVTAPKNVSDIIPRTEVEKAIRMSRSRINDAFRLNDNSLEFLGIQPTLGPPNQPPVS

The term Kd denotes the free concentration of one partner at which half of the binding sites on the other are occupied at equilibrium, for simple one-to-one binding. Consider tuftsin (peptide), for which the Kd in experiment [1] was determined as 10.7 µM; in experiment [2], 460 µM.
